Source: PMC8304084, “A Concerted Action of UBA5 C-Terminal Unstructured Regions Is Important for Transfer of Activated UFM1 to UFC1” (International Journal of Molecular Sciences, 2021)
Positions count from the first letter of the chain named. In names and notes the source's numbering stands. Where two headings read alike, the source gives them in different places. Blank lines part the entries; values can stand above or below the molecule they belong to.

Key:
UBA5 [1] = settings: in vitro; cited from earlier work
From the text: The UBA5 C-terminal part (Figure 1A) plays a complex regulatory role, consisting of a few conserved regions that mediate interaction of UBA5 with other key players in the ufmylation cascade. The first sequence is a conserved region (R1, residues 334–348), interacting with UFM1 [10, 29, 30, 31, 32] and also with LC3/GABARAP proteins. This region (called LIR/UFIM by its dual nature) is important for the initial binding of UFM1 to UBA5 [10, 29, 31, 32] and for the following UFM1 activation in a trans-fashion. Trans-activation means that UBA5 forms an active ho ...

UFC1 = biological target: T1, UFC1 (Homo sapiens, UniProt Q9Y3C8); experiment: In vitro thioester formation (ufmylation) assay, UFC1~UFM1 conjugate; assay type: biochemical; settings: 70 µM UFM1, 20 µM UFC1, 20 µM UBA5 construct, 1 mM ATP, 50 mM HEPES pH 7.5, 22 °C
T1 construct: Full length UFC1, residues 1–167; modified ubiquitin tag (Ub19) with TEV site (N, cleaved yes); made in house; host or cells: E. coli T7 Express
T1 sequence (Q9Y3C8 1-167): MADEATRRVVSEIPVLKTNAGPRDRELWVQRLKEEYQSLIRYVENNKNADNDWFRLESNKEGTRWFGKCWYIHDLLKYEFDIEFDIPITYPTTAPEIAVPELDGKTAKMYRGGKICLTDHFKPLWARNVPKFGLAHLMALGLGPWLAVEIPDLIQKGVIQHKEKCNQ
Method: First, we analyzed the effect of the UBA5 C-terminus on UFM1 transfer to UFC1 with an in vitro thioester formation assay (Figure 1B–E).
Ufmylation reaction assays were adopted from work of Xie. Briefly, 70 µM UFM1, 20 µM UFC1 and 20 µM of different UBA5 constructs were mixed in reaction buffer (50 mM HEPES pH = 7.5, 100 mM NaCl, 5 mM MgCl2). After starting the reaction with addition of 1 mM ATP, the reaction mix was incubated at 22 °C for the desired time. To quench the reaction and prepare electrophoretic samples, 1 µL of the reaction mix was added to 99 µL 1x non-reducing SDS loading buffer and frozen in liquid nitrogen. Sample content was visualized by sodium dodecyl sulfate polyacrylamide gel electrophoresis (SDS-PAGE). The transfer to polyvinylidene difluoride (PVDF) membrane was performed via a Trans-Blot® Turbo™ Transfer System (Bio-Rad, München, Germany). After transfer the membrane was blocked with TBST (Tris-buffered saline with Tween20 buffer, 20 mM Tris, 150 mM NaCl and 0.1% TWEEN 20) containing 5% w/v nonfat dry milk for 1 h, followed by α-UFC1 antibody incubation over night at 4 °C (ab189251 abcam, 1:10,000 in TBST containing 5% w/v nonfat dry milk). After washing with TBST the membrane was incubated with secondary antibody (anti-rabbit-HRP) for 1 h at RT and again washed with TBST. […] For quantification of UFC1 ufmylation coloc2 software implemented in ImageJ was used.

UBA5 [2] = settings: cited from earlier work
From the text: Another conserved region in UBA5 is located at it very C-terminus (R3, residues 393–404) and is predicted to have a helical conformation. […] UFC1, the only known E2 enzyme for UFM1, was characterized structurally a few years after discovery of the UFM1 cascade. […] In our structure we observed that the UFC1 K33 sidechain forms an intermolecular hydrogen bond with the UBA5 D389 sidechain (Figure 3F). In contrast, UFC1 Q31 is not in contact with any of the UBA5 R3 residue and could not affect the UBA5:UFC1 interaction.

B1: GABARAP: GABARAP, residues 3–116 (protein)
chain: GAMFVYKEEHPFEKRRSEGEKIRKKYPDRVPVIVEKAPKARIGDLDKKKYLVPSDLTVGQFYFLIRKRIHLRAEDALFFFVNNVIPPTSATMGQLYQEHHEEDFFLYIAYSDESVYG
modifications: left off: modified ubiquitin tag (Ub19), N-terminal, cleaved
- effect on UFM1 binding to UBA5 (UBA5 [1]): inhibit UFM1 binding to UBA5

- UFC1~UFM1 conjugation (UFC1; 7 h): 80%
- UFC1 conjugated to UFM1 (UFC1~UFM1) (UFC1; within 30 min, Western blot, triplicates): less than 5%
B2: AD^1–330: UBA5 adenylation domain, residues 1–330 (protein, UniProt Q9GZZ9 1-330, looked up, fragment)
chain: MAESVERLQQRVQELERELAQERSLQVPRSGDGGGGRVRIEKMSSEVVDSNPYSRLMALKRMGIVSDYEKIRTFAVAIVGVGGVGSVTAEMLTRCGIGKLLLFDYDKVELANMNRLFFQPHQAGLSKVQAAEHTLRNINPDVLFEVHNYNITTVENFQHFMDRISNGGLEEGKPVDLVLSCVDNFEARMTINTACNELGQTWMESGVSENAVSGHIQLIIPGESACFACAPPLVVAANIDEKTLKREGVCAASLPTTMGVVAGILVQNVLKFLLNFGTVSFYLGYNAMQDFFPTMSMKPNPQCDDRNCRKQQEEYKKKVAALPKQEVIQE
modifications: adenylation domain

B3: UFC1 K33A: UFC1 K33A mutation, literature (protein, UniProt Q9Y3C8 1-167, looked up, variant K33A)
Ubiquitin-fold …: T1 sequence (Q9Y3C8 1-167) with K33A
- effect of UFC1 mutation on UBA5 binding and UFM1 transfer (UBA5 [2]): significantly reduces both UBA5 binding and UFM1 transfer from UBA5 to UFC1
- effect of UFC1 mutation on UBA5 binding and UFM1 transfer (UBA5 [2]; listed as K33A): impaired UBA5 binding and UFM1 transfer to UFC1
